In assay [1] the target is human 26S proteasome (human | human (endogenous in HEK293)) (UniProt O00487).
For assay [2] the target is unchanged. The source holds these as a separate data set.
For assay [3] the target is unchanged. Kind of assay: single-molecule TIRF microscopy.

B1: ZFAND5/ZNF216, recombinant wild type (natural protein)
chain: MAQETNQTPGPMLCSTGCGFYGNPRTNGMCSVCYKEHLQRQQNSGRMSPMGTASGSNSPTSDSASVQRADTSLNNCEGAAGSTSEKSRNVPVAALPVTQQMTEMSISREDKITTPKTEVSEPVVTQPSPSVSQPSTSQSEEKAPELPKPKKNRCFMCRKKVGLTGFDCRCGNLFCGLHRYSDKHNCPYDYKAEAAAKIRKENPVVVAEKIQRI
Turning to B1, in assay [1], the increase of the initial (phase I) degradation rate of ubiquitylated cycB-cpGFP is 24% and the increase of the late (phase II) degradation rate of ubiquitylated cycB-cpGFP worked out at 71%. For the same molecule, in assay [2], the stimulation of peptide hydrolysis of purified 26S proteasome is under 10 fold.

B2: His6-SNAP-ZFAND5wt (natural protein)
chain: B1 chain
modifications: SNAP tag labelled with SNAP-Surface 649 (fluorescent form) or with SNAP-Biotin (immobilised form)
For B2, in assay [3], the dwell-time constant, first (short-binding) exponential mode was 50 ms and the dwell-time constant, second (long-binding) exponential mode came to 614 ms.
